Experimental data reported in US11713337B2, “Peptide, compositions and method for delivery of agents into cells and tissues” (priority 2019, dated 2023).
Values joined by “and” are separate entries in the source; they are usually repeats but may differ in a detail not shown here. Identical values can stand only once. “Also recorded” adds a separate entry of the source. Peptide text beside a SMILES is read from it. * marks the point of attachment. 5FAM = O=C1OC2(c3ccc(O)cc3Oc3cc(O)ccc32)c2ccc(C(=O)*)cc21

Legend:
[1] = tested on: retina; assay: Retinal penetration of FAM-labeled Nuc1 after intravitreal injection
Experimental: Intravitreal and subretinal injections: Mice were anesthetized by injecting intraperitoneally a cocktail mixture containing Ketamine (100 mg/kg, Phoenix™, St Joseph, Mo.) and Xylazine (10 mg/kg, Lloyed, Shenandoah, Iowa) followed by topical application of 0.5% proparacaine hydrochloride (Akorn Inc., Lake Forest, Ill., USA) for topical analgesia to the cornea. Mice were kept warm during anesthesia. lntravitreal and subretinal injections were performed using a 32-gauge needle and a 5μI glass syringe, as previously described (Cashman et al., 2015). […] Four hours post injection (as indicated), eyes were enucleated and fixed in 4% paraformaldehyde. […] Retinal cryosections were taken using a Micron 550 cryostat.
Four hours post injection, eyes of these mice were enucleated and fixed in 4% paraformaldehyde. Retinal cryosections were generated using a Micron 550 cryostat and sections were imaged using a fluorescent microscope.

[2] = tested on: retina; details: 1 μg dexamethasone alone or with 1 μg Nuc1
Experimental: We hypothesized that Nuc1 may facilitate penetration of steroids into tissues, enabling a steroid to be applied in a reduced dosage without loss of efficacy. To test this hypothesis, we injected either 1 μg fluorescently labeled dexamethasone alone or fluorescently labeled dexamethasone in combination with 1 μg Nuc1.

[3] = tested on: alkali burn of the cornea; assay: Alkali burn of the cornea: TUNEL assay on corneal cryosections; format: in vivo, C57BL/6 mice; details: 7 days topical treatment
Text: (§1) Mice were kept warm during anesthesia. Alkali burn was induced in the cornea by applying 2 mm filter paper discs soaked with 1N sodium hydroxide (NaOH) on the central cornea of the right eye for 30 seconds. The filter paper was gently removed from the cornea and the cornea rinsed with phosphate buffered saline (PBS) 10 times to clear residual NaOH. The left eye was left unexposed to NaOH and served as a control. […] The treatments were applied topically once a day for seven days. Images of the eye were captured on day 7 using a digital camera. After 7 days, mice were sacrificed by CO2 inhalation, followed by cervical dislocation. The eyes were enucleated and fixed in 4% paraformaldehyde. Corneal cryosections were taken using a Micron 550 cryostat.
TUNEL assay: To detect cell death, the terminal deoxynucleotidyl transferase-mediated dUTP-biotin nick-end labeling (TUNEL) method was performed on corneal cryosections using the In Situ Death Detection Kit, TMR Red (Sigma), as per the manufacturer's instructions. The sections were imaged, as described above, and images used for quantification of TUNEL positive cells using ImageJ (FIJI version and plug in), as previously described.

[4] = tested on: alkali burn of the cornea; assay: Alkali burn of the cornea: multiplex ELISA of cytokines in corneal lysates; format: in vivo, C57BL/6 mice; details: 7 days topical treatment, Bioplex
Text: as §1
Multiplex ELISA: Multiplex ELISA was performed to detect IL-6, IL-17, IL-10, IFN-G, TNF-α, and IL-1β using Bio-plex pro mouse cytokineTh17 A 6 plex group I (Bio-Rad, M6000007NY), as per the manufacturer's instructions. Briefly, alkali burn was induced as described above. Mice were sacrificed on day 7 and corneas were extracted. The corneas were dissected into small pieces and stored at −80° C. in Bioplex cell lysis buffer. Two corneas were pooled together for each sample and 50 μl of the lysate was used in duplicate for each sample. The samples were run using the Bio plex manager MP software and the data was analyzed using Bioplex manager 6.0.

[5] = tested on: alkali burn of the cornea; assay: Alkali burn of the cornea: corneal opacity and H+E histology; format: in vivo, C57BL/6 mice
Text: as §1
Histopathology: The eyes were harvested for histology 7 days post-treatment and fixed in Hartman's fixative. After 48 hours, the specimens were dehydrated through alcohol steps and embedded in paraffin. […] sections were cut at different planes, including the optic nerve region, and stained with Hematoxylin & Eosin (H&E). Imaging of stained sections was performed using an Olympus BX51 microscope using a Retiga 2000r camera.
On day 7, mice were sacrificed for imaging of corneas (FIG. 14A). […] Mice were scored for clinical opacity based on method described by Anderson et al.. […]

[6] = tested on: alkali burn of the cornea; assay: Alkali burn of the cornea: staining of corneal cryosections (isolectin, SMA, CD45, F4/80, TGF-β1, activated Caspase-3); format: in vivo, C57BL/6 mice
Text: The filter paper was gently removed and the cornea was rinsed with phosphate buffered saline (PBS) 10 times. […] The treatments were applied topically once a day for seven days. After 7 days, mice were sacrificed by CO2 inhalation. Eyes were enucleated and fixed in 4% paraformaldehyde. Corneal cryosections were taken using a Micron 550 cryostat and stained for α-actin, a marker of fibrosis.
as §1
Immunochemistry: Cryosections were air dried for 10 minutes and washed in PBS for 5 minutes. They were subsequently incubated in 6% normal goat serum and PBS-Triton for 1 hour at room temperature for permeabilization and blocking. The slides were incubated with FITC-conjugated isolectin or with primary antibody against one of following: α-smooth muscle actin (SMA), glial fibrillary acidic protein (GFAP), CD45, transforming growth factor beta (TGF-β1), F4/80, transforming growth factor beta (TGF-β1) (Abcam; ab92486), or activated Caspase-3. This incubation was performed at 4° C. in a moist chamber overnight. For samples treated with antibodies, detection was performed by incubation with a secondary Cy3-conjugated goat anti-rabbit/anti-mouse antibody (Jackson lmmunoResearch, West Grove, Pa.) for 1 hour at room temperature. The slides were washed three times with PBS and mounted in Vectashield anti fade mounting medium containing DAPI to counterstain the nuclei. Imaging of stained sections was performed using an Olympus IX51 microscope and appropriate filters. Images were captured using a Retiga 2000r camera. The intensity of the antibody specific staining was quantified using ImageJ software.

[7] = tested on: gliosis in the retina after alkali burn; assay: Alkali burn of the cornea: GFAP staining of retina (gliosis); format: in vivo, C57BL/6 mice; details: topical to cornea for 7 days after alkali burn
Text: as §1
Immunochemistry: Cryosections were air dried for 10 minutes and washed in PBS for 5 minutes. They were subsequently incubated in 6% normal goat serum and PBS-Triton for 1 hour at room temperature for permeabilization and blocking. The slides were incubated with FITC-conjugated isolectin or with primary antibody against one of following: α-smooth muscle actin (SMA), glial fibrillary acidic protein (GFAP), CD45, transforming growth factor beta (TGF-β1), F4/80, transforming growth factor beta (TGF-β1) (Abcam; ab92486), or activated Caspase-3. […] The intensity of the antibody specific staining was quantified using ImageJ software. […]

[8] = tested on: floxed stop tdTomato reporter in retina; assay: Cre recombinase uptake and gene editing in Ai9 reporter mice (tdTomato); format: in vivo; details: 4 micrograms Cre recombinase alone or with 1 microgram Nuc1, intravitreal
Text: In these mice, a reporter tdTomato transgene expression cassette is turned on when a foxed stop codon is excised by Cre recombinase. […] The observation that Cre recombinase can enter cells by itself was surprising. However, the above assay is highly sensitive due to the fact that one gene editing event is substantially amplified through the continuous production of protein that accumulates in the cell.

O=C(O)c1ccc2c(c1)C1(OC2=O)c2ccc(O)cc2Oc2cc(O)ccc21 [6-FAM, reference compound]
localization in retina (fluorescence microscopy of cryosections) ([1]; 1 ug in 1 ul H2O intravitreal, four hours post injection, adult mice): unable to penetrate retina

CC[C@H](C)[C@H](NC(=O)[C@H](CO)NC(=O)[C@H](C)NC(=O)c1ccc2c(c1)C(=O)OC21c2ccc(O)cc2Oc2cc(O)ccc21)C(=O)N[C@@H](CCCCN)C(=O)N[C@H](C(=O)N[C@@H](C)C(=O)N[C@H](C(=O)N[C@@H](CO)C(=O)N[C@@H](C)C(=O)NCC(=O)NCC(=O)N[C@@H](CC(=O)O)C(=O)N[C@@H](CCCCN)C(=O)N1CCC[C@H]1C(=O)N[C@@H](CCCNC(=N)N)C(=O)N[C@@H](CCCNC(=N)N)C(=O)O)C(C)C)C(C)C [FAM labeled Nuc1] (5FAM-ASIKVAVSAGGDKPRR-OH)
localization in retina (fluorescence microscopy of cryosections) ([1]; mouse, in vivo): localized to all layers of the retina

C[C@@H]1C[C@H]2[C@@H]3CCC4=CC(=O)C=C[C@]4(C)[C@@]3(F)[C@@H](O)C[C@]2(C)[C@@]1(O)C(=O)CO [dexamethasone]
uptake of fluorescently labeled dexamethasone into the retina [2]: taken up into the retina

B1: decorin: human recombinant decorin, a small leucine rich proteoglycan (protein, UniProt P07585 31-359, looked up)
Decorin: DEASGIGPEVPDDRDFEPSLGPVCPFRCQCHLRVVQCSDLGLDKVPKDLPPDTTLLDLQNNKITEIKDGDFKNLKNLHALILVNNKISKVSPGAFTPLVKLERLYLSKNQLKELPEKMPKTLQELRAHENEITKVRKVTFNGLNQMIVIELGTNPLKSSGIENGAFQGMKKLSYIRIADTNITSIPQGLPPSLTELHLDGNKISRVDAASLKGLNNLAKLGLSFNSISAVDNGSLANTPHLRELHLDNNKLTRVPGGLAEHKYIQVVYLHNNNISVVGSSDFCPPGHNTKKASYSGVSLFSNPVQYWEIQPSTFRCVYVRSAIQLGNYK
TUNEL staining of cornea, images (cell death) [3]: considerable reduction in TUNEL staining in the corneal stroma | reduction in TUNEL staining relative to PBS (quantification) [3]: 44.8% | IFN-G expression in corneal lysate relative to PBS treated mice [4]: reduction in expression | IL-1β expression in corneal lysate [4]: increased expression | IL-6 expression in corneal lysate relative to PBS treated mice [4]: reduction in expression | IL-17 expression in corneal lysate relative to PBS treated mice [4]: reduction in expression | TNF-α expression in corneal lysate relative to PBS treated mice [4]: reduction in expression | corneal histology (H+E transverse sections) ([5]; 7 days topical treatment, relative to PBS): increase in thickness of the epithelium; also recorded: vacuolization was apparent | clinical opacity score (method of Anderson et al.) ([5]; topical once daily for 7 days from 24 hours post alkali burn, PBS scored 4): 2.8 | CD45 staining of cornea, images (leukocytes) ([6]; 7 days topical treatment): reduction in CD45 and F4/80 staining in the anterior region of the stroma | F4/80 staining of cornea, images (macrophages) ([6]; 7 days topical treatment): reduction in CD45 and F4/80 staining in the anterior region of the stroma | SMA staining of cornea, images (fibrosis) ([6]; 7 days topical treatment): modest reduction of SMA staining | TGF-β1 expression in cornea (antibody staining) ([6]; 7 days topical treatment): lower expression of TGF-β1 | activated Caspase-3 staining of cornea, images, relative to PBS treated mice ([6]; 7 days topical treatment): considerable reduction in the staining for activated Caspase-3 in the stroma and endothelium | isolectin (GSL I) staining of cornea, images (neovascularization) ([6]; 7 days topical treatment): obvious reduction in isolectin staining | reduction in CD45 staining / CD45-positive cells relative to corneas treated with PBS ([6]; 7 days topical treatment): 39.6% | reduction in F4/80 staining relative to corneas treated with PBS ([6]; 7 days topical treatment): no significant reduction | reduction in isolectin staining relative to PBS treated corneas (quantification) ([6]; 7 days topical treatment): not significantly different to that of PBS treated corneas | reduction in activated Caspase-3 staining (quantification of fluorescent signal) ([6]; 7 days topical treatment, reference PBS treated (implied)): 51.5% | reduction in α-actin (SMA) staining relative to PBS (fibrosis) ([6]; topical 0.5 μg decorin with or without 0.5 μg Nuc1 once a day for seven days, from 24 hours after NaOH): 33.3% and 33.25% | GFAP staining of retina (Muller cell activation, gliosis) [7]: reduced staining relative to the retinas of mice treated with PBS

B2: Cre recombinase: Cre recombinase protein, approximately 38 Kd (protein, UniProt P06956 1-343, looked up)
Recombinase cre: MSNLLTVHQNLPALPVDATSDEVRKNLMDMFRDRQAFSEHTWKMLLSVCRSWAAWCKLNNRKWFPAEPEDVRDYLLYLQARGLAVKTIQQHLGQLNMLHRRSGLPRPSDSNAVSLVMRRIRKENVDAGERAKQALAFERTDFDQVRSLMENSDRCQDIRNLAFLGIAYNTLLRIAEIARIRVKDISRTDGGRMLIHIGRTKTLVSTAGVEKALSLGVTKLVERWISVSGVADDPNNYLFCRVRKNGVAAPSATSQLSTRALEGIFEATHRLIYGAKDDSGQRYLAWSGHSARVGAARDMARAGVSIPEIMQAGGWTNVNIVMNYIRNLDSETGAMVRLLEDGD
tdTomato positive Muller cells [8]: almost no Muller cells expressing tdTomato | tdTomato reporter expression in retina [8]: detectable tdTomato expression
